Results from paper PMC5643300.

Tests used:
[1] = molecular target: MOSP^C, C-terminal domain of the major outer sheath protein (recombinant, refolded) (Treponema denticola); assay: SEC + other: negative-stain TEM of nanodiscs; MOSP^C incorporated into small D7 DMPC nanodiscs, S200 column, Tris-NaCl buffer pH 7.5; peaks examined by SDS-PAGE and TEM
[2] = molecular target: MOSP^C, C-terminal domain of the major outer sheath protein (recombinant, refolded) (Treponema denticola); assay: negative-stain TEM of nanodiscs; MOSP^C refolded in DDM and incorporated into large MSP1E3D1 (E3D1) DMPC nanodiscs; SEC peak fractions, uranyl formate stain, averaged images
[3] = molecular target: major outer sheath protein, native periplasmic conformer (Treponema denticola ATCC 35405 (endogenous)); assay: SDS-PAGE without boiling, immunoblot; NP-40 supernatant (OM conformer) and TX-114 aqueous phase (periplasmic conformer) of T. denticola in Laemmli buffer, with and without boiling; antisera to MOSP^Fl, PrtP, PrcA1, PrcA2, PrcB
[4] = molecular target: major outer sheath protein, native periplasmic conformer (Treponema denticola ATCC 35405 (endogenous)); assay: SDS-PAGE without boiling, immunoblot; 2% DDM-solubilized pellet of sonicated T. denticola, run with and without boiling, anti-MOSP^Fl; TX-114 phase partitioning of the same material
[5] = molecular target: MOSP expressed in E. coli with a PelB signal sequence (Treponema denticola); assay: native gel or EMSA; BN-PAGE and immunoblot of the 2% DDM extract of the outer membrane fraction of E. coli expressing PelB-MOSP
[6] = molecular target: major outer sheath protein, native outer membrane conformer (Treponema denticola ATCC 35405 (endogenous)); assay: SDS-PAGE without boiling, immunoblot; NP-40 supernatant (OM conformer) and TX-114 aqueous phase (periplasmic conformer) of T. denticola in Laemmli buffer, with and without boiling; antisera to MOSP^Fl, PrtP, PrcA1, PrcA2, PrcB
[7] = molecular target: major outer sheath protein, native outer membrane conformer (Treponema denticola ATCC 35405 (endogenous)); assay: SDS-PAGE without boiling, immunoblot; 2% DDM-solubilized pellet of sonicated T. denticola, run with and without boiling, anti-MOSP^Fl; TX-114 phase partitioning of the same material

MOSP^C, C-terminal domain of the major outer sheath protein (recombinant, refolded) (domain or fragment)
stoichiometry N [1]: 3
stoichiometry N [2]: 3

major outer sheath protein, native periplasmic conformer (natural protein)
stoichiometry N [3]: 3
stoichiometry N [4]: 3

MOSP expressed in E. coli with a PelB signal sequence (natural protein)
stoichiometry N [5]: 3

major outer sheath protein, native outer membrane conformer (natural protein)
stoichiometry N [6]: 3
stoichiometry N [7]: 3
